From US20250295801A1, “CD25 ANTIBODIES, ANTIBODY DRUG CONJUGATES, AND USES THEREOF” (Seagen Inc., priority 2024, published 2025)

Key:
recombinant cyno CD25 = assay: Saturation binding analysis by ELISA; set-up: species or system cynomolgus; conditions: compared with human CD25, FIG. 1A, 1B, 7
Experimental: Saturation binding ELISA experiments were performed using soluble recombinant antigens, which were diluted to an appropriate concentration in 50 mM carbonate buffer, pH 9.6. To each well of a 96- or 384-well Maxisorb ELISA plate was added 100 μL of soluble antigen. The plate was sealed and stored at 4° C. overnight. The plate was then washed 3-5 times with PBS-T was buffer (PBS, pH 7.4+0.05% Tween-20). The wells were blocked using 300 μL/well of PBS-T buffer containing BSA for 1 hour at room temperature, then washed 3-5 times with PBS-T. Dilutions of antibodies were prepared in blocking buffer and added to each well in a volume of 100 μL. The antibodies were incubated for 1 hour at room temperature, and then washed 3-5 times with PBS-T. HRP-conjugated secondary antibodies (anti-human Fc) were then added and incubated for 1 hour at room temperature. The plate was washed 3-5 times with PBS-T. The ELISA was developed by adding 100 μL of TMB solution and incubating for 3-15 min at room temperature. To stop the reaction, 100 μL of 1 N sulfuric acid was added to each well. The absorbance at 450 nm was determined using a Spectramax 190 plate reader ([…]) and the data plotted using GraphPad Prism 6.
Saturation binding analysis of CD25 antibody SG25Ab-9 and detuned CD25 antibody SG25Ab-9 YH98A on recombinant human and cyno CD25 was assessed by ELISA.

CD25 expressing cells = assay: Internalization into CD25 expressing cells; type: cell-based, human; conditions: FIG. 1E

binding to recombinant cynomolgus CD25 (recombinant cyno CD25): efficiently bound cynomolgus CD25
B1: SG25Ab-4: human anti-CD25 IgG1 antibody; VH SEQ ID NO: 31, VL SEQ ID NO: 32 (antibody, V domains shown)
VH: EVQLVQSGAEVKKPGESLKISCKGPEYSFNRYWIAWVRQRPGKGLEWMGIIYPGDSDARYSPTFEGHVTLSADMSLTTAYLQWSSLRASDTAMYYCARLGSYYAFDIWGKGTMVTVSS
VL: QSALTQPASVSGSPGQSITIFCTGTSSDVGGYNYVSWYQQHPGKAPKLMIYDVSKRPSGVSNRFSGSKSGNTASLTISGLQAEDEADYYCSSYTSSSTWVFGGGTQLTVL
internalization into CD25 expressing cells (CD25 expressing cells): efficiently internalized into CD25 expressing cells
